In US20190211097A1 (ADVENTIST HEALTH SYSTEM SUNBELT, published 2019):
Each block holds one binder with its values, some of them ahead of it.

Target: T1, human CD32a (FcgammaRIIa) on washed human platelets (human, UniProt P12318 34-317)
T1 sequence: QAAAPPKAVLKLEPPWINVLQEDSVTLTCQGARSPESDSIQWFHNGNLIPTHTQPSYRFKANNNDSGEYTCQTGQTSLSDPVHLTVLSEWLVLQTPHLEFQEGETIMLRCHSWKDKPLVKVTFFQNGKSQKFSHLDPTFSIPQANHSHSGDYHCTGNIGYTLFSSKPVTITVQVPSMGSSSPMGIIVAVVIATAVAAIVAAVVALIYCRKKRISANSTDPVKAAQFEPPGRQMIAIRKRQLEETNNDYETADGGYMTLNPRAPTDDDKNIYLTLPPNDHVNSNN
Experiment: cell-based or functional assay

mAb concentration that inhibited 500 nM M90+CD40L IC-induced platelet aggregation: 3 nM
B1: effector-deficient humanized IV.3.2 IgG1 E269R mAb (antibody)
heavy: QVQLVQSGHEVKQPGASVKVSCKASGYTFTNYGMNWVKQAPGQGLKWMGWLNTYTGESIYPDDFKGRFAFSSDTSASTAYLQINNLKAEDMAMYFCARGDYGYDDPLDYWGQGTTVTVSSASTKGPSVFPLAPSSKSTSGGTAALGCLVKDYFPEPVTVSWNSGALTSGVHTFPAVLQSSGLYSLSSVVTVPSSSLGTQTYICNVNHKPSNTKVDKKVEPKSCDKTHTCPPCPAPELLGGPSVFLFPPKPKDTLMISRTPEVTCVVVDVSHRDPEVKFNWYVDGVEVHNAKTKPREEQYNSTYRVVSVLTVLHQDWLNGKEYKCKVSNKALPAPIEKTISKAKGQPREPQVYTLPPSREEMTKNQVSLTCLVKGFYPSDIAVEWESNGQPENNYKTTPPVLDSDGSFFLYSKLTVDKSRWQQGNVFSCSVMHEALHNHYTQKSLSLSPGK
light: DIVMTQTPLSLPVTPGEPASISCRSSKSLLHTNGNTYLHWYLQKPGQSPQLLIYRMSVLASGVPDRFSGSGSGTDFTLKISRVEAEDVGVYYCMQHLEYPLTFGGGTKVEIKRTVAAPSVFIFPPSDEQLKSGTASVVCLLNNFYPREAKVQWKVDNALQSGNSQESVTEQDSKDSTYSLSSTLTLSKADYEKHKVYACEVTHQGLSSPVTKSFNRGEC

mAb concentration that inhibited 500 nM M90+CD40L IC-induced platelet aggregation: 15 nM
B2: effector-deficient humanized AT-10 IgG1 E269R mAb (antibody)
heavy: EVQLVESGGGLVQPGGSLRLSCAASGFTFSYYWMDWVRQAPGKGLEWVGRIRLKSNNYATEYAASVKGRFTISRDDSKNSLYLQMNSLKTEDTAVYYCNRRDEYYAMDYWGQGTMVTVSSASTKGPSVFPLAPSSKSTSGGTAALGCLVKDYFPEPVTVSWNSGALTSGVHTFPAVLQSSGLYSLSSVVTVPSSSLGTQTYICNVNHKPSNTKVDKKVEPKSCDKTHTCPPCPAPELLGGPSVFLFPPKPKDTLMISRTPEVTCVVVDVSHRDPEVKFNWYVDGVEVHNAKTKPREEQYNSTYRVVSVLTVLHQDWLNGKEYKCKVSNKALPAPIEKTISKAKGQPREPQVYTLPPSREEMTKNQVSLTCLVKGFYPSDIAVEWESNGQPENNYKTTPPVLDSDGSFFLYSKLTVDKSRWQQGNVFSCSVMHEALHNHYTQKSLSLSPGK
light: EIVLTQSPATLSLSPGERATLSCRASESVDNFGISFLAWYQQKPGQAPRLLIYGASNRATGIPARFSGSGSGTDFTLTISSLEPEDFAVYYCQQSKEVPWTFGQGTKVEIKRTVAAPSVFIFPPSDEQLKSGTASVVCLLNNFYPREAKVQWKVDNALQSGNSQESVTEQDSKDSTYSLSSTLTLSKADYEKHKVYACEVTHQGLSSPVTKSFNRGEC

platelet aggregation by the combination of chimeric AT-10 hIgG1 E269R, chimeric IV.3 hIgG2 N297A and MDE-8 IgG1 E269R, 300 nM each: 300 nM
B3: effector-deficient chimeric IV.3 human IgG2 N297A mAb (antibody)
heavy: QIQLVQSGPELKKPGETVKISCKASGYTFTNYGMNWVKQAPGKGLKWMGWLNTYTGESIYPDDFKGRFAFSSETSASTAYLQINNLKNEDMATYFCARGDYGYDDPLDYWGQGTSVTVSSASTKGPSVFPLAPCSRSTSESTAALGCLVKDYFPEPVTVSWNSGALTSGVHTFPAVLQSSGLYSLSSVVTVPSSNFGTQTYTCNVDHKPSNTKVDKTVERKCCVECPPCPAPPVAGPSVFLFPPKPKDTLMISRTPEVTCVVVDVSHEDPEVQFNWYVDGVEVHNAKTKPREEQFASTFRVVSVLTVVHQDWLNGKEYKCKVSNKGLPAPIEKTISKTKGQPREPQVYTLPPSREEMTKNQVSLTCLVKGFYPSDIAVEWESNGQPENNYKTTPPMLDSDGSFFLYSKLTVDKSRWQQGNVFSCSVMHEALHNHYTQKSLSLSPGK
light: DIVMTQAAPSVPVTPGESVSISCRSSKSLLHTNGNTYLHWFLQRPGQSPQLLIYRMSVLASGVPDRFSGSGSGTAFTLSISRVEAEDVGVFYCMQHLEYPLTFGAGTKLELKRTVAAPSVFIFPPSDEQLKSGTASVVCLLNNFYPREAKVQWKVDNALQSGNSQESVTEQDSKDSTYSLSSTLTLSKADYEKHKVYACEVTHQGLSSPVTKSFNRGEC
